{"source": "patent US8932880B2", "about": "“Method for the direct measure of molecular interactions by detection of light reflected from multilayered functionalized dielectrics” (ProXentia s.r.l., priority 2009, dated 2015)", "biological_target": "T1, Avidin (Gallus gallus, UniProt P02701)", "T1 construct": "purchased Sigma-Aldrich A9275", "T1 sequence (P02701 25-152)": "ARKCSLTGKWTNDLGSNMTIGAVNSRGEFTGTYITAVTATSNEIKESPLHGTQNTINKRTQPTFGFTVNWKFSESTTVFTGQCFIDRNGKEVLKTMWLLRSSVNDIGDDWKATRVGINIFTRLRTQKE", "experiment": "Reflected light intensity from an antireflective SiO2-coated prism, He-Ne laser and photodiode (Example 2): binding to adsorbed Avidin", "settings": "632.8 nm laser; flow 10 microliters/minute; phosphate buffer pH 7.4 + 150 millimolar NaCl; BSA 0.4 micromolar, BSA-biotin 0.5 micromolar", "excerpt": "A layer of silicon oxide (SiO2) was deposed by sputtering on one side of a glass prism, as described in Example 1. The prism is placed in a flow cell so that the coated surface is in contact with the aqueous solution. A light beam from a 5 milliwatts He—Ne laser is sent to the interface between the aqueous solution and the prism and the reflected light is detected by a photodiode that converts the light intensity in an electrical signal. Through the cell is promoted a flow of 10 microliters/minute of an aqueous solution containing sodium phosphate buffer pH 7.4+150 millimolar NaCl (hereafter called “phosphate buffer”) in the following order:\nb) protein Avidin (marketed by Sigma-Aldrich, prod. No. A9275) at a concentration of 3 micromolar;\nd) protein Bovine Serum Albumin, BSA (marketed by Sigma-Aldrich, prod. No. A6003) at a concentration of 0.4 micromolar;\nf) protein BSA conjugated to biotin (marketed by Sigma-Aldrich, prod. No. A8549) at a concentration of 0.5 micromolar;\nIn FIG. 5 the measured reflected intensity is reported as a function of time. The value of the reflected light intensity measured before the step a) corresponds to a reflectivity of 3.2·10^−6. […] Unlike in Example 1, in this case the adhesion molecules on the surface causes an increase in the intensity of reflected light. […]"}
{"substance": "Bovine Serum Albumin [BSA protein]", "values": [{"measurement": "variation of reflected intensity on flowing the solution over adsorbed Avidin", "value": "no further variation is observed"}]}
